Biological target: T1, ATF3 (recombinant human) (Homo sapiens, UniProt P18847 1-181)
T1 sequence: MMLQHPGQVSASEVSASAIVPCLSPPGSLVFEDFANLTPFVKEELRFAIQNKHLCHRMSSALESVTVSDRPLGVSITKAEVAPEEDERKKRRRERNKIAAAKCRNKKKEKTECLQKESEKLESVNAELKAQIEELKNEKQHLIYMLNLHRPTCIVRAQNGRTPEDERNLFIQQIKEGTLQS
Experiment: EMSA

B1: HyATF3-2 probe (dsDNA)
DNA 1: TTATGTTTACTGACGTTTCCCTGCCTTCTA
DNA 2: TAGAAGGCAGGGAAACGTCAGTAAACATAA
- binding result: binds

B2: HyATF3-1 probe (dsDNA)
DNA 1: GAAAAAAACGTCAGAAAACAAGTGACGTATTATA
DNA 2: TATAATACGTCACTTGTTTTCTGACGTTTTTTTC
- binding result: binds

Reference: article PMC9436372
